Earlier results on one substance are cited in publication PMC7462287.

The target of the series is Protective antigen heptamer (Bacillus anthracis) (UniProt P13423). As to the kind of experiment: SPR. Background: Surface plasmon resonance follows binding to a sensor surface in real time, without labels.
Protective antigen heptamer (Bacillus anthracis), sequence (P13423 197-764): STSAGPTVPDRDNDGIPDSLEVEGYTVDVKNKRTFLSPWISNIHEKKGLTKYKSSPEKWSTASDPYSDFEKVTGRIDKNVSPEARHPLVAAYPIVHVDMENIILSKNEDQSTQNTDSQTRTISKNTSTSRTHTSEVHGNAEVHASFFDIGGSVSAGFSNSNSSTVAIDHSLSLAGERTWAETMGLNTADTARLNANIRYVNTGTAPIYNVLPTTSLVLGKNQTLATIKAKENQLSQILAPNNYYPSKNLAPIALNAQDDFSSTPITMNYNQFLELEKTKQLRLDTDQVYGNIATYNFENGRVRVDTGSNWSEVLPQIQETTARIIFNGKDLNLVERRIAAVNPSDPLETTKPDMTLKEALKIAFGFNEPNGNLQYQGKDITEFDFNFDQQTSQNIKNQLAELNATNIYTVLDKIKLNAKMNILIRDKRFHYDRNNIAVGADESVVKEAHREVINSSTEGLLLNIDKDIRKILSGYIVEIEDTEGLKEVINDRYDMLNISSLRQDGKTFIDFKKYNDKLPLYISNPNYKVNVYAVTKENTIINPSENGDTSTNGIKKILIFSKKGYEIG

Edema factor, sequence (P40136 34-800): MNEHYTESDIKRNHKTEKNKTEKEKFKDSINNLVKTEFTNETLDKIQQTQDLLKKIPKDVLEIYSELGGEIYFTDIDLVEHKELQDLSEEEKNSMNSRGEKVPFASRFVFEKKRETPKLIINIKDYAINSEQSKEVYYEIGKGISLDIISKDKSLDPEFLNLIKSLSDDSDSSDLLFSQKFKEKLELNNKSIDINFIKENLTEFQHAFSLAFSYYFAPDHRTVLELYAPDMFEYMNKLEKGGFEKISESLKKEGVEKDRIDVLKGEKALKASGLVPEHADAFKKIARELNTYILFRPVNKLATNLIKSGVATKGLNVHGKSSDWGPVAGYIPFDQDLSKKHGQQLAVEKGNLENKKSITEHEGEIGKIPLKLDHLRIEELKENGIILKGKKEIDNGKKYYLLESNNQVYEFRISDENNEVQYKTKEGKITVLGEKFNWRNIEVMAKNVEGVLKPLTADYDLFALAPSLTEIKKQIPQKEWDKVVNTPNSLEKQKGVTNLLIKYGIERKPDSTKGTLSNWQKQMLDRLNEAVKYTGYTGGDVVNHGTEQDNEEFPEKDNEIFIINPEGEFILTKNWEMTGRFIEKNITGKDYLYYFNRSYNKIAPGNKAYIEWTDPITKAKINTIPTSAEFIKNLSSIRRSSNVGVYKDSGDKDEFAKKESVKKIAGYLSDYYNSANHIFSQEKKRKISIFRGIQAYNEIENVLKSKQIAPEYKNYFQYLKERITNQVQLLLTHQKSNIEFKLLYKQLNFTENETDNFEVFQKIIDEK

In general, Kd refers to the equilibrium constant for the complex coming apart. Edema factor (from UniProt P40136): the Kd is 1.5 nM.
